Like-named read-outs stand apart in the source and are kept apart here.
Assays:
SARS-COV-2 RBD [1] = biological target: T1, SARS-COV-2 RBD (SARS-COV-2, UniProt P0DTC2 319-539); assay: ELISA, RBD coated on plate
T1 construct: also called WT RBD

SARS-COV-2 RBD [2] = biological target: T2, SARS-COV-2 RBD (SARS-COV-2, UniProt P0DTC2 319-539); assay: ELISA, RBD coated on plate; remark: listed apart in the source
T2 construct: also called WT RBD

Row | Binder | EC50 (SARS-COV-2 RBD [1]) | EC50 (SARS-COV-2 RBD [2])
1 | C1068 (antibody, V domains shown) VH: QVQLVESGGGVVQPGRSLRLSCAASGFTFSTFAMHWVRQAPGKGLEWVAVTSYDGSNKYYADSVKGRFTISRDNSKNTLYLQMNSLRAEDTAVYYCARGLLWFGESEYFQHWGQGTLVTVSS VL: not shown | 2.48 ng/mL | –
2 | C1065 (antibody, V domains shown) VH: EVQLVESGGGLIQPGGSLRLSCAASGFTVSRNYMSWVRQAPGKGLEWVSVIYSGGSTFYADSVKGRFTISRDNSKNTLYLQMNSLRAEDTAVYYCARGLPTGEGWNYFDYWGQGTLVTVSS VL: QSALTQPASVSGSPGQSITISCTGTSSDIGGYHYVSWYQQHPGKAPKLMIYDVSNRPSGISNRFSGSKSGNTASLTISGLQAEDEADYYCSSYASSSVIFGGGTKLTVL | 3.52 ng/mL | –
3 | C1052 (antibody, V domains shown) VH: QVQLVQSGAEVKKPGASVKVSCKVSGYTLSELSMHWVRQAPGEGLEWLGGFDPEDGETINAQKFQGRVTMTEDRSTDTAYMELSSLRSEDTAVYYCATRGRYCSSGNCYYHHWGQGTLVTVSS VL: DIQMTQSPSTLSASVGDRVIITCRASQNIHNWLAWYQQKPGKAPKLLIYKASSLESGVPSRFSGSGSGTEFTLTISSLQPDDFATYFCQQYHSYSWTFGQGTKVEIK | – | 2.64 ng/mL
4 | C1057 (antibody, V domains shown) VH: QVQLVQSGAEVKKPGSSVKVSCKASGGTFTTYIISWVRQAPGQGLEWMGGISPMLGTANYAQKFQGGVTITADESTTTAYMEMSGLRSEDTAVYYCARAHMYCSDGSCYRQSGYFDSWGQGTLVTVSS VL: QSALTQPRSVSGSPGQSVTITCTGTSSNVGGYKYVSWFQQHPGKAPKFLIYDVSERSSGVPDRFSGSKSGNTASLTISGLQAEDEADYYCCSYAGKYTVVFGGGTRLTV | – | 2.17 ng/mL
5 | C1050 (antibody, V domains shown) VH: EVQLVESGGGLVQPGRSLRLSCAASGFTFDDYGMHWVRQAPGKGLEWVSGISWNGDSIGYADSVKGRFTISRDNAKTSLYLQMNRLRAEDTALYYCAKAASRSTRIGGAFDIWGQGTMVTVSS VL: QSALTQPASVSGSPGQSITISCTGTSSDVGGYNLVSWYQQHPGKAPKLMIYEGSKRPSGVSNRFSGSKSGNTASLTISGLQAEDEADYYCCSYAYSFTNVFGTGTKVTV | – | 2.78 ng/mL
6 | C1051 (antibody, V domains shown) VH: EVQLVESGGGLVQPGRSLRLSCVASGFTFDDYGLHWVRQAPGKGLEWVSGISWNSDSIGYADSVKGRFAISRDNARTSLYLQMNRLRAEDTALYYCAKAASRSTRIGGAFDIWGQGTMVTVSS VL: QSALTQPASVSGSPGQSITISCTGTSSDVGGYNLVSWYQQYPGKAPKLMIYEDSKRPSGVSHRFSGSKSGNTASLTISGLQAEDEADYYCCSYAFSFTNVFGTGTKVTV | – | 1.4 ng/mL
7 | C1043 (antibody, V domains shown) VH: EVQLVESGGGLVQPGRSLRLSCAASGFIFDNYAMHWVRQAPGKGLEWVSGISWNSDSIGYADSVKGRFTISRDNAKNSLYLQMSSLRAEDTALYYCAKDLLGNYYYYTLDVWGQGTTVTVSS VL: QSALTQPASVSGSPGQSITISCTGTSSDIGGNNYVSWYQQHPGKAPRLMIFDVSYRPSGVSNRFSGSKSGNTASLTISGLQAEDEADYYCISYTTSSTLGVFGGGTKLTVL | – | 2.77 ng/mL
8 | C1046 (antibody, V domains shown) VH: EVQLVQSGAEVKKPGESLKISCKGSGYSFTSYWIGWVRQMPGKGLEWMGIIYPGDSDTRYSPSFQGQVTISADKSISTAYLQWSSLKASDTAMYYCARMVTSGTYYYDNSGYSSSGPFDYWGQGTLVTVSS VL: DIQLTQSPSSLSASVGDRVTITCRASQGISSALAWYQQKPGKAPKLLIYDASSLESGVPSRFSGSGSGTDFTLTISSLQPEDFATYYCQQFNNFGPGTKVDIK | – | 3.8 ng/mL
9 | C1058 (antibody, V domains shown) VH: EVQLVESGGGLVQPGGSLRLSCAASGIIVSSNYMNWVRQVPGKGLEWVSVLYSGGSTFYADSVRGRFTISRDNSKNTLFLQMNSLRPEDTAVYYCARDFREGAFDIWGQGTMVTV VL: DIQLTQSPSFLSASVGDRVTITCRASQGISSYLAWYQQKPGKAPNLLIYAASTLQSGVPSRFSGSGSGTDFTLTISSLQPEDFATYYCQQLNSYSPLFGQGTRLEIK | – | 2.13 ng/mL
10 | C1059 (antibody, V domains shown) VH: EVQLVESGGGLVQPGGSLRLSCAASGVTVSYNYMHWVRQAPGKGLEWVSVFFPGGSIFYADSVKGRFSISRDNSHNTLYLQMNNLRPEDTAVYYCARDFREGAIDLWGQGTMVTVSS VL: DIQLTQSPSFLSASVEDRVTITCRASQGISSYLAWYQQKPGKAPKLLIYGASTLQSGVPSRFSGSGSGTEFTLTISSLQPEDSATYYCQQLNSYPPLFGQGTRLEIK | – | 2.17 ng/mL
11 | C1060 (antibody, V domains shown) VH: EVQLVESGGDLVQPGGSLRLSCAASEIIVSRNYMNWVRQAPGKGLEWVSIIYSGGSTFYGDSVKGRFTISRDSSKNTLYLQMHGLRVEDTAIYYCARSYGDYYIDYWGQGTLVTVSS VL: DIQMTQSPSSVSASVGDRVTITCRTSQSISTSLAWYQQKPGKAPKLLIYAASSLQRGVPSRFSGTGSGTDFTLTISSLQPEDFATYYCQQSSSSPPLFTFGPGTKVDIK | – | 2.67 ng/mL
12 | C1066 (antibody, V domains shown) VH: EVQLVESGGGLVQPGRSLRLSCAASGFMFDDYAMHWVRQAPGKGLEWVSGINWSSADIGYVDSVKGRFTISRDNAKNSLYLQMNSLRTEDTAFYYCAKGWFGELLGGSDSWGQGTLVTVSS VL: QLVLTQSSSASASLGSSVKLTCTLNSGHSSYIIAWHQQQPGKAPRYLMKLEGSGSYNKGSGVPDRFSGSSSGADRYLTISNLQFEDEADYYCATWDSNTQVFGGGTKLTVL | 3.01 ng/mL | –
13 | C1047 (antibody, V domains shown) VH: EVQLVQSGAEVKKPGESLKISCKGSGYSFISYWIVWVRQMPGKGLEWIGIIYPGDSDTIYSPSFQGQVTLSADKSISTAYLQWSSLKASDTAIYYCAKMVTSGTSYYETRGYASSGPFDNWGQGTLVTVSS VL: DIQLTQSPSSLSASVGDRVTITCRASQGISSALAWYQQKPGKAPKLLIYDASSLESGVPSRFSGSGSGTDFTLTISSLQPEDFATYYCQQSDNFGPGTKVDI | – | 2.46 ng/mL
14 | C1048 (antibody, V domains shown) VH: EVQLVQSGAEVKKPGESLKISCKVSGYSFISHWIGWVRQMPGKGLEWMGIIYPGDSDTRYSPSFQGQVTISADKSISTAYLQWSSLKASDTAMYYCARRGASWELDYWGQGTLVTV VL: QSVLTQPPSASGTPGQRVTISCSGSSSNIGSNPVSWYQQLPGPAPQLLIYGNDQRPSGVPDRFSGSKSGTSASLAISGLQSEDEADYYCAAWDDSLNGYVFGTGTKVTVL | – | 2.41 ng/mL
15 | C1040 (antibody, V domains shown) VH: QVQLVESGGGVVQPGRSLRLSCAASGFSFINYNMHWVRQAPGKGLEWVAVIWYDGSNKYYADSVKGRFTISRDNSKNTLYLQMNSLRVEDTAVYYCARDPAITEAEIDYWGQGTLVTVSS VL: DVVMTQSPLSLPVTLGQAASISCRSSQSLVHSDGNTYLNWFQQRPGQSPRRLIYRVSNRDSGVPDRFSASGSGTDFTLKISRVEAEDVGVYYCMQGTHWPWTFGQGTKVEIK | – | 2.08 ng/mL
16 | C1030 (antibody, V domains shown) VH: EVQLVESGGGLVQPGGSLRLSCEASGVIVSSNYMNWVRQAPGKGPEWVSVLYAGGSTFYADSVKGRFTISRDDSKNTLFLQMNNLRAEDTAVYFCARDLIAFGMDVWGQGTTVTVSS VL: DIQLTQSPSFLSASVGDRVTITCRASQGINSDLAWYQQKPGKAPKLLIYGASTLQSGVPSRFSGSGSGTEFSLTVSSLQPEDFATYYCQQLNSYRRFGGGTKVEIK | – | 2.78 ng/mL
17 | C1067 (antibody, V domains shown) VH: QVQLVQSGAEVKKPGASVKVSCKASRDTFTTHYIHWVRQAPGQGLEWMGIINPSGGSISYAQKFQGRVTMTRDTSTSTVYMELSSLRSEDTAVYYCARGGIVPHLSNWFDPWGQGTLVTVSS VL: EIVLTQSPGTLSLSPGERATLSCRASQSVSSSYLAWYQQKPGQAPRLLIYGASSRATGIPDRFTGSGSGTDFTLTISRLEPEDFAVYYCQQYGRSSGFTFGPGTKVDIK | 2.93 ng/mL | –
18 | C1055 (antibody, V domains shown) VH: QVQLVESGGGVVQPGRSLRLSCAASGFTFSTYGMNWVRQAPGKGLEWVALILYDGSDKYYADSVKSRFTISRDNSRNTLYLQMTSLRAEDTAVYYCAKALSSTYYYDASGPDAFDIWGQGTMVTVSS VL: not shown | – | 2.71 ng/mL
19 | C1049 (antibody, V domains shown) VH: EVQLVQSGAEVKKPGESLKISCKSSGYSFISHWIGWVRQMPGKGLEWMGIIWPGDSDTRYSPSFQGQVTISVDKSITTVYLQWSSLKAADTAMYYCARRGSSWEVDYWGQGTLVTVSS VL: not shown | – | 2.81 ng/mL
20 | C1053 (antibody, V domains shown) VH: EVQLLESGGGLVQPGGSLRLSCAASGFTFSSYAMNWVRQAPGKGLEWVSAISGSGGGTYYADSVKGRFTISRDNSKNTLYLQMDSLRAEDTAVYYCAKDVPIEQQLVPTFDYWGQGALVTVSS VL: DIQMTQSPSSLSASVGDRVTITCRASQSISRYLNWYQQKPGKAPKLLIYGASSLQSGVPSRFSGSGSGTDFTLTISSLQPEDFATYWCQQSYSTLSITFGQGTRLEIK | – | 4.13 ng/mL
21 | C1061 (antibody, V domains shown) VH: EVQLVESGGGLVQPGGSLRLSCAASGFTFSRYDMHWVRQGTGKGLEWVSAIGTSGDTYYPDSVKGRFTISRENAKNSLYLQMNSLRAGDTAVYYCARGGLQTTTWLFDYWGQGTLVTVSS VL: DIQMTQSPSSLSASVGDRVTITCRASQSISRYLNWYQQKPGKAPKLLIYAASSLQSGVPSRFSGSGAGTDFTLTISSLQPEDFAIYYCQQSYSNPPITFGQGTRLEIK | – | 2.26 ng/mL
22 | C1054 (antibody, V domains shown) VH: EVQLLESGGGLVQPGGSLRLSCVVSGFTFSSYAMNWVRQAPGKGLEWVSVIGGSGDGRYYADSVKGRFTISRDNSKNTLYLQMNSLRGDDTAVYYCARDVPVEQQLVPTFDYWGQGTLVTVSS VL: DIQMTQSPSSLSASVGDRVTITCRASQSISRYLNWYQQKPGKAPKLLIYAASSLQSGVPSRFSGSGSGTEFTLTISSLQPEDFATYYCQQSYSTLSITFGQGTRLEIK | – | 1.84 ng/mL
23 | C1062 (antibody, V domains shown) VH: EVQLVESGGGLVQPGGSLRLSCAASGFTFSNYDMHWVRQTTGKGLEWVSAIGTAGDTYYPGSVKGRFTMSRENAKNSLYLQMNSLRAGDTAVYYCARGGLQTTTWLFDNWGQGTLVTVSS VL: DIQMTQSPSSLSASVGDRVTITCRASQTISRYLNWYQQKPGKAPKLLIYAASSLQSGVPSRFSGSGSGTDFTLTISSLQPEDFATYYCQQSYTMPPITFGQGTRLEIK | – | 2.61 ng/mL

— patent US20240218057A1 (ROCKEFELLER UNIVERSITY, published 2024)
